B1: Pistol ribozyme (parent)
chain: GGGUCGUUGUUCCAUAAUCGCGUGGAUAUGGCACGCAAGUUUCUACCGGGCACCGUAAAUGUCCGACUGGAGCCGUUCGGGCGGCUAUAAACAGACCUCAGGCCCGAAGCGUGGCGGCACCUGCCGCCGGUGGUAAAAAAGAUCGGAAGAGCACACGUCU

Variants of: B1
Experiment: aptazyme ON/OFF ratio, guanine; higher = stronger switching; co-transcriptional cleavage with and without guanine

Going from U7G U8C G9A U10C U11C C12G to U7G U8C G9A U10C U11C C12U, the “aptazyme ON/OFF ratio” value falls from 1.16 to 1.09.

Compared with U7G U8C G9A C12U C13A, U7G U8C G9A C12U C13G is lower in “aptazyme ON/OFF ratio” value: 1.03 for the first, 1.02 for the second.

Going from U7G U8C G9A C12U C13U to U7G U8A U11G, the “aptazyme ON/OFF ratio” value rises from 1.03 to 1.24.

First: U7G U8A U11A
Second: U7G U8A U11C
The “aptazyme ON/OFF ratio” value of the first is higher: 2.25 for the first, 2.05 for the second.

First: U7G U8C G9A U11C C12A
Second: U7G U8C G9A U11C C12U
The “aptazyme ON/OFF ratio” value of the first is higher: 2 for the first, 1.65 for the second.

First: U7G U8C G9A U11C C12G
Second: U7G U8C G9A U10C U11C C12A C13A
The “aptazyme ON/OFF ratio” value of the first is higher: 1.4 for the first, 1.2 for the second.

First: U7G U8C G9A U10C U11C C12A C13G
Second: U7G U8C G9A U10C U11C C12A C13U
The “aptazyme ON/OFF ratio” value of the first is higher: 1.28 for the first, 1.2 for the second.

Going from U7G U8C G9A U10A U11G to U7G U8C G9A U10A U11C, the “aptazyme ON/OFF ratio” value falls from 1.87 to 1.11.

First: U7G U8C G9A U10A U11A
Second: U7G U8C G9A U10G C12G C13U
The “aptazyme ON/OFF ratio” value of the first is higher: 3.25 for the first, 1.15 for the second.

First: U7G U8C G9A U10G C12G C13A
Second: U7G U8C G9A U10G C12G C13G
The “aptazyme ON/OFF ratio” value of the first is higher: 1.12 for the first, 1.05 for the second.

First: U7G U8C G9A U10G U11C C13A
Second: U7G U8C G9A U10G U11C C13G
The “aptazyme ON/OFF ratio” value of the first is higher: 1.14 for the first, 1.07 for the second.

Going from U7G U8C G9A U10G U11C C13U to U7G U8C G9A U11A C12G C13U, the “aptazyme ON/OFF ratio” value rises from 1.05 to 1.1.

First: U7G U8C G9A U11A C12G C13G
Second: U7G U8C G9A U11A C12G C13A
The “aptazyme ON/OFF ratio” value of the first is higher: 1.06 for the first, 1.05 for the second.

Compared with U7G U8A U11A C12U C13G, U7G U8A U11A C12U C13U is higher in “aptazyme ON/OFF ratio” value: 1.26 for the first, 1.36 for the second.

Compared with U7G U8A U11A C12U C13A, U7G U8C G9A U10G U11A C12A C13A is lower in “aptazyme ON/OFF ratio” value: 1.31 for the first, 1.04 for the second.

Going from U7G U8C G9A U10G U11A C12A C13G to U7G U8C G9A U10G U11A C12A C13U, the “aptazyme ON/OFF ratio” value rises from 1.09 to 1.11.

First: U7G U8C G9A U10C U11G C12G C13A
Second: U7G U8C G9A U10C U11G C12G C13U
The “aptazyme ON/OFF ratio” value of the first is higher: 1.08 for the first, 1.05 for the second.

First: U7G U8C G9A U10C U11G C12G C13G
Second: U7G U8C G9A U11G C12A
The “aptazyme ON/OFF ratio” value of the first is lower: 1.08 for the first, 1.1 for the second.

Compared with U7G U8A U11G C12G C13U, U7G U8A U11G C12G C13G is lower in “aptazyme ON/OFF ratio” value: 1.4 for the first, 1.32 for the second.

First: U7G U8A U11G C12G C13A
Second: U7G U8C G9A U10C U11A C13U
The “aptazyme ON/OFF ratio” value of the first is lower: 1.16 for the first, 1.28 for the second.

Going from U7G U8C G9A U10C U11A C13A to U7G U8C G9A U10C U11A C13G, the “aptazyme ON/OFF ratio” value falls from 1.18 to 1.07.

Compared with U7G U8C G9A U10G U11A C12G C13A, U7G U8C G9A U10G U11A C12G C13G is higher in “aptazyme ON/OFF ratio” value: 1.09 for the first, 1.24 for the second.

First: U7G U8C G9A U10G U11A C12G C13U
Second: U7G U8C G9A C12G C13A
The “aptazyme ON/OFF ratio” value of the first is higher: 1.12 for the first, 1.05 for the second.

Compared with U7G U8C G9A C12G C13G, U7G U8C G9A C12G C13U is lower in “aptazyme ON/OFF ratio” value: 1.04 for the first, 1.03 for the second.

First: U7G U8C C12G C13U
Second: U7G U8C C12G C13G
The “aptazyme ON/OFF ratio” value of the first is higher: 1.19 for the first, 1.08 for the second.

Compared with U7G U8C C12G C13A, U7G U8C G9A U10C U11G C12U C13G is higher in “aptazyme ON/OFF ratio” value: 1.08 for the first, 1.22 for the second.

Compared with U7G U8C G9A U10C U11G C12U C13U, U7G U8C G9A U10C U11G C12U C13A is higher in “aptazyme ON/OFF ratio” value: 1.18 for the first, 1.26 for the second.

Compared with U7G U8C G9A U10G C12A C13U, U7G U8C G9A U10G C12A C13A is lower in “aptazyme ON/OFF ratio” value: 1.09 for the first, 1.07 for the second.

Compared with U7G U8C G9A U10G C12A C13G, U7G U8A U11C C12U C13A is higher in “aptazyme ON/OFF ratio” value: 1.03 for the first, 1.32 for the second.

Going from U7G U8A U11C C12U C13U to U7G U8A U11C C12U C13G, the “aptazyme ON/OFF ratio” value falls from 1.47 to 1.09.

Compared with U7G U8C G9A U11C C13A, U7G U8C G9A U11C C13U is lower in “aptazyme ON/OFF ratio” value: 1.34 for the first, 1.21 for the second.

Going from U7G U8C G9A U11C C13G to U7G U8C G9A U10A U11C C12G, the “aptazyme ON/OFF ratio” value rises from 1.06 to 1.13.

Compared with U7G U8C G9A U10A U11C C12A, U7G U8C G9A U10A U11C C12U is lower in “aptazyme ON/OFF ratio” value: 1.31 for the first, 1.11 for the second.

Compared with U7G U8C G9A U11A C13A, U7G U8C G9A U11A C13U is higher in “aptazyme ON/OFF ratio” value: 1.14 for the first, 1.21 for the second.

Compared with U7G U8C G9A U11A C13G, U7G U8C G9A U11A C12A C13G is higher in “aptazyme ON/OFF ratio” value: 1.03 for the first, 1.07 for the second.

Compared with U7G U8C G9A U11A C12A C13A, U7G U8C G9A U11A C12A C13U is higher in “aptazyme ON/OFF ratio” value: 1.08 for the first, 1.11 for the second.

Going from U7G U8A U10G U11G C12G C13A to U7G U8A U10G U11G C12G C13G, the “aptazyme ON/OFF ratio” value falls from 1.15 to 0.981.

First: U7G U8A U10G U11G C12G C13U
Second: U7G U8A U11C C12G C13U
The “aptazyme ON/OFF ratio” value of the first is higher: 1.7 for the first, 1.32 for the second.

Going from U7G U8A U11C C12G C13G to U7G U8A U11C C12G C13A, the “aptazyme ON/OFF ratio” value rises from 1.2 to 1.22.

Compared with U7G U8C G9A U10C U11G C12G, U7G U8C G9A U10C U11G C12A is lower in “aptazyme ON/OFF ratio” value: 1.12 for the first, 1.07 for the second.

First: U7G U8C G9A U10C U11G C12U
Second: U7G U8C G9A U10C U11C C12G C13U
The “aptazyme ON/OFF ratio” value of the first is higher: 1.37 for the first, 1.09 for the second.

First: U7G U8C G9A U10C U11C C12G C13G
Second: U7G U8C G9A U10C U11C C12G C13A
The “aptazyme ON/OFF ratio” value of the first is lower: 1.05 for the first, 1.15 for the second.

Reference: the RNAGym collection of RNA variant scans (doi:10.1021/acssynbio.7b00057)
